Assay results as given in patent US20180282410A1 (Hoffmann-La Roche, published 2018).

T1: murine (mu) Robo 4 ECD-PreS-Avi-His (mouse)
T1 construct: also called recombinant murine Robo 4; murine Robo 4
T1 chain: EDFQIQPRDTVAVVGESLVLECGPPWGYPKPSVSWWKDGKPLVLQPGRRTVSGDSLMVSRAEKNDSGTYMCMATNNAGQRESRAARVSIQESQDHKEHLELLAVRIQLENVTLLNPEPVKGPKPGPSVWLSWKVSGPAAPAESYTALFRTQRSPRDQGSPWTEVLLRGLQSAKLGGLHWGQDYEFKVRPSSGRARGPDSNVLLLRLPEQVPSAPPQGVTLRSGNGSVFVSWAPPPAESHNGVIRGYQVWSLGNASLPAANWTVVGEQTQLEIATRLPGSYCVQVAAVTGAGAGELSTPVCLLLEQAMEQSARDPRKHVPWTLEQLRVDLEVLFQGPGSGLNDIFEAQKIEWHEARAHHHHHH

T2: recombinant cynomolgus Robo 4 ECD fused to AcTEV protease recognition site, Avi- and 6xHis-tag (cynomolgus)
T2 construct: Biotinylated in the avidity assay
T2 chain: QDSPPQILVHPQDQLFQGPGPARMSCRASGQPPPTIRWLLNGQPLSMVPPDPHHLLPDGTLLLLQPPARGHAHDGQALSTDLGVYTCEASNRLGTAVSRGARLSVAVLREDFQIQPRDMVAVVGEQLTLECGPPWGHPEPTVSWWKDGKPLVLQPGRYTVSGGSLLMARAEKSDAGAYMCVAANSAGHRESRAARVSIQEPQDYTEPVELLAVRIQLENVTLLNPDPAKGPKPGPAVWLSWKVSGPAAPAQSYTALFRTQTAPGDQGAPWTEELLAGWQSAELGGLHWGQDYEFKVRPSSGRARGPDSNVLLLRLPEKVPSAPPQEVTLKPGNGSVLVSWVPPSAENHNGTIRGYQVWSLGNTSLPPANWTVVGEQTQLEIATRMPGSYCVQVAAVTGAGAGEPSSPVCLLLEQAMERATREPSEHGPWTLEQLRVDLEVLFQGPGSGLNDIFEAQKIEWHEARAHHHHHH

T3: human (hu) Robo 4 extracellular domain (ECD)-precision site (PreS)-Avi-tag (Avi)-6x histidine (His) (human)
T3 construct: it holds the ECD with PreScission site, Avi-tag and His-tag; also called recombinant human Robo 4; human Robo 4
T3 chain: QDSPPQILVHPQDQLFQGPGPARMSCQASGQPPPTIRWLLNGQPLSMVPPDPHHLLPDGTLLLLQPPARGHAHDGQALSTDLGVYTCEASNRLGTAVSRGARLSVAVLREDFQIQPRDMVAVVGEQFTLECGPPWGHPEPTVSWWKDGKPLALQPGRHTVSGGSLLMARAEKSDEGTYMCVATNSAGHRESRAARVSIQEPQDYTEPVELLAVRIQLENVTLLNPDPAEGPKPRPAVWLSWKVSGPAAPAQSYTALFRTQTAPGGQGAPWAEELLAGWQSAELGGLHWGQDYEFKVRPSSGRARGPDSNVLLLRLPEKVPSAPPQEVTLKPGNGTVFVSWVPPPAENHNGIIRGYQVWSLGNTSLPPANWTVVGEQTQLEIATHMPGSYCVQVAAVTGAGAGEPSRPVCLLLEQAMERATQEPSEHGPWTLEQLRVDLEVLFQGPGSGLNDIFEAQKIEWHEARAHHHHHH

B1: 01F09 anti-Robo 4 IgG (antibody, V domains shown)
VH: QIQLQESGPGLVKPSQSLSLTCSVTGYSISSGSLWTWIRQFPGNNLEWMGYISYAGGIDYNPSLTSRISITRDTSRNQFFLQLESVTTQDTATYYCATPGGYPFHFDYWGQGTMVTVSS
VL: QPVLTQSPSASASLGASVKLTCTLNSQFSTYNIGWYQQHRDKPPKYVMFVKGDGGHSKADGIPDRFSGSSSGADRYLTISNIQAEDEAIYFCGADYNNAGQYGCVFGSGTHFTVLG
notes: also called 01F09 IgG
B2: 01E06 anti-Robo 4 IgG (antibody, V domains shown)
VH: EVQLVESGGGLSQPGNSLKLSCEASGFTFRNYDMSWVRQAPGKGLEWVAYISSGGGPIYYVDAVKGRFTISRDNAKNLLFLQMNNLRSEDTAVYYCARDLADIGVFDYWGQGTMVTVSS
VL: DFKMTQSPDILSPSLGESVTITCQSSQNIYSNLAWYQQKPGEHPKLLIYTASILADGIPSRFTGSGSGTQFSLKISSLQPDDVANYYCQQYVYYRTFGPGTKLEIK
notes: also called 01E06 IgG
B3: 01F05 anti-Robo 4 IgG (antibody, V domains shown)
VH: QVQLKQSGAELVKPGASVKISCKTSVYTFTYGYMHWVEQKPGQGLEWIGRIDPDSGNSMYNQKFQGRATLTRDKSSSTVYMELRSLTSEDSAVYYCARSMRYSGYRDYALDLWGQGTQVTVSS
VL: QLVLTQSPSASASLGASVKLTCTLSSQHSSYGITWLQQHPDKAPKYVMYLKSDGSHTKGADIPDRFSGSSSGVHRYLSISNVQPEDEAIYFCVTYDSTHVFGSGTQLTVLG
notes: also called 01F05 IgG
B4: 7G2 anti-Robo 4 IgG (antibody, V domains shown)
VH: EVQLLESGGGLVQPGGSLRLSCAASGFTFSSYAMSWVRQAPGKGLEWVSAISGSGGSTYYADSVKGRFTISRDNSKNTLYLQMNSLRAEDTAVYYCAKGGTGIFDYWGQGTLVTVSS
VL: EIVLTQSPGTLSLSPGERATLSCRASQSVSSSYLAWYQQKPGQAPRLLIYGASSRATGIPDRFSGSGSGTDFTLTISRLEPEDFAVYYCQQGQLPPRTFGQGTKVEIK
notes: also called 7G2 IgG

Target: T1, murine (mu) Robo 4 ECD-PreS-Avi-His
Test: SPR Biacore T100, IgG captured via anti-human Fab, antigen as analyte (affinity)
Method: (§1) All surface plasmon resonance (SPR) experiments are performed on a Biacore T100 at 25° C. with HBS-EP as running buffer (0.01 M HEPES pH 7.4, 0.15 M NaCl, 3 mM EDTA, 0.005% Surfactant P20 (Biacore)).
(§2) Anti Robo 4 antibodies were captured for 60 s at 50 nM. Recombinant human, murine and cynomolgus Robo 4 were passed at a concentration range from 0.46-1000 nM with a flow of 30 μl/min through the flow cells over 90 s. The dissociation was monitored for 120 s. Bulk refractive index differences were corrected for by subtracting the response obtained on a reference flow cell. Here, the antigens were flown over a surface with immobilized anti-human Fab specific antibody on which HBS-EP has been injected rather than the antibodies.
(§3) Kinetic constants were derived using the Biacore T100 Evaluation Software (vAA, Biacore), to fit rate equations for 1:1 Langmuir binding by numerical integration.

Row | Kd | koff | kon | Binder
1 | 256 nM | 0.0307 s⁻¹ | 120000 M⁻¹ s⁻¹ | B1
2 | 166 nM | 0.0128 s⁻¹ | 77100 M⁻¹ s⁻¹ | B2
3 | 10.1 nM | 0.00031 s⁻¹ | 30800 M⁻¹ s⁻¹ | B3

Target: T2, recombinant cynomolgus Robo 4 ECD fused …
Test: as above
Method: as §1, §2, §3

Row | Kd | koff | kon | Binder
4 | 64.1 nM | 0.00116 s⁻¹ | 18100 M⁻¹ s⁻¹ | B4
5 | 474 nM | 0.0315 s⁻¹ | 66600 M⁻¹ s⁻¹ | B1
6 | 0.96 nM | 8e-05 s⁻¹ | 80400 M⁻¹ s⁻¹ | B2
7 | 144 nM | 0.00191 s⁻¹ | 13300 M⁻¹ s⁻¹ | B3

Target: T3, human (hu) Robo 4 extracellular domain …
Test: as above
Method: as §1, §2, §3

Row | Kd | koff | kon | Binder
8 | 23.4 nM | 0.00102 s⁻¹ | 43800 M⁻¹ s⁻¹ | B4
9 | 2.63 nM | 0.00063 s⁻¹ | 241000 M⁻¹ s⁻¹ | B1
10 | 0.69 nM | 0.00033 s⁻¹ | 479000 M⁻¹ s⁻¹ | B2
11 | 15.3 nM | 0.00091 s⁻¹ | 59600 M⁻¹ s⁻¹ | B3
